According to the supplement of paper PMC9233669:
Fewer inactive variants are shown than the library holds.

Key:
[1] = test system: biotinyl-Met-oxazolone; assay: self-aminoacylation, catalytic enhancement (BMO) (fold over background); higher = more active; k-Seq, kA / k0A0; sequences stand for … in GGGAAUGGAUCCACAUCUACGAAUUC…UUCACUGCAGACUUGACGAAGCUG
In short: (§1)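 The uncatalyzed rate is the low-activity peak of a bimodal Gaussian fit, and catalytic enhancement is median kA divided by it. The kA values came from pseudo-first-order fits, with 1000 bootstraps, of per-sequence fraction reacted measured by streptavidin capture, triplicate qPCR and Illumina sequencing. Mutagenized RNA pools with a 21-nt variable region (0.43 μM) were reacted with each biotinyl-aminoacyl-oxazolone at 2–1250 μM in 50 μL HEPES/NaCl/KCl/MgCl2/CaCl2 buffer with 5% acetonitrile, pH 6.9–7.0, for 90 minutes at room temperature.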

[2] = test system: biotinyl-Leu-oxazolone; assay: self-aminoacylation, catalytic enhancement (BLO) (fold over background); higher = more active; k-Seq, kA / k0A0; sequences stand for … in GGGAAUGGAUCCACAUCUACGAAUUC…UUCACUGCAGACUUGACGAAGCUG
In short: as §1

[3] = test system: biotinyl-Phe-oxazolone; assay: self-aminoacylation, catalytic enhancement (BFO) (fold over background); higher = more active; k-Seq, kA / k0A0; sequences stand for … in GGGAAUGGAUCCACAUCUACGAAUUC…UUCACUGCAGACUUGACGAAGCUG
In short: as §1

[4] = test system: biotinyl-Trp-oxazolone; assay: self-aminoacylation, catalytic enhancement (BWO) (fold over background); higher = more active; k-Seq, kA / k0A0; sequences stand for … in GGGAAUGGAUCCACAUCUACGAAUUC…UUCACUGCAGACUUGACGAAGCUG
In short: as §1

[5] = test system: biotinyl-Ile-oxazolone; assay: self-aminoacylation, catalytic enhancement (BIO) (fold over background); higher = more active; k-Seq, kA / k0A0; sequences stand for … in GGGAAUGGAUCCACAUCUACGAAUUC…UUCACUGCAGACUUGACGAAGCUG
In short: as §1

[6] = test system: biotinyl-Val-oxazolone; assay: self-aminoacylation, catalytic enhancement (BVO) (fold over background); higher = more active; k-Seq, kA / k0A0; sequences stand for … in GGGAAUGGAUCCACAUCUACGAAUUC…UUCACUGCAGACUUGACGAAGCUG
In short: as §1

Sequence: CUACUUCACUCAAUCGGUCUG [Fam1A.1 aminoacylation ribozyme variant]
- self-aminoacylation [1]: 0.72
- self-aminoacylation [2]: 0.719
- self-aminoacylation [3]: 0.865
- self-aminoacylation [4]: 0.651
- self-aminoacylation [5]: 0.732
- self-aminoacylation [6]: 0.934

Sequence: CUACUUCAGAAAAUCGGUCUG [Fam1A.1 aminoacylation ribozyme variant]
- self-aminoacylation [1]: 0.803
- self-aminoacylation [2]: 0.757
- self-aminoacylation [3]: 1.55
- self-aminoacylation [4]: 0.826
- self-aminoacylation [5]: 0.791
- self-aminoacylation [6]: 0.816

Sequence: CUACUUCAGACAAGCGGUCUG [Fam1A.1 aminoacylation ribozyme variant]
- self-aminoacylation [1]: 1.26
- self-aminoacylation [2]: 0.966
- self-aminoacylation [3]: 0.263
- self-aminoacylation [4]: 0.406
- self-aminoacylation [5]: 0.839
- self-aminoacylation [6]: 0.96

Sequence: CUACUUCAGACAAUCGAUCUG [Fam1A.1 aminoacylation ribozyme variant]
- self-aminoacylation [1]: 0.542
- self-aminoacylation [2]: 0.477
- self-aminoacylation [3]: 0.994
- self-aminoacylation [4]: 0.493
- self-aminoacylation [5]: 0.669
- self-aminoacylation [6]: 0.634

Sequence: CUACUUCAGACAAUCGGACUG [Fam1A.1 aminoacylation ribozyme variant]
- self-aminoacylation [1]: 0.586
- self-aminoacylation [2]: 0.662
- self-aminoacylation [3]: 0.835
- self-aminoacylation [4]: 0.652
- self-aminoacylation [5]: 0.864
- self-aminoacylation [6]: 0.829

Sequence: CUACUUCAGACAAUCGGUGUG [Fam1A.1 aminoacylation ribozyme variant]
- self-aminoacylation [1]: 1.57
- self-aminoacylation [2]: 1.5
- self-aminoacylation [3]: 3.43
- self-aminoacylation [4]: 1.7
- self-aminoacylation [5]: 1.23
- self-aminoacylation [6]: 1.4

Sequence: CUACUUCAGACAAUCGGUUUG [Fam1A.1 aminoacylation ribozyme variant]
- self-aminoacylation [1]: 0.613
- self-aminoacylation [2]: 0.596
- self-aminoacylation [3]: 0.819
- self-aminoacylation [4]: 0.646
- self-aminoacylation [5]: 0.771
- self-aminoacylation [6]: 0.86

Sequence: CUACUUCAGACAAUCGUUCUG [Fam1A.1 aminoacylation ribozyme variant]
- self-aminoacylation [1]: 0.477
- self-aminoacylation [2]: 0.512
- self-aminoacylation [3]: 0.453
- self-aminoacylation [4]: 0.342
- self-aminoacylation [5]: 0.59
- self-aminoacylation [6]: 0.659

Sequence: CUACUUCAGACAAUGGGUCUG [Fam1A.1 aminoacylation ribozyme variant]
- self-aminoacylation [1]: 0.798
- self-aminoacylation [2]: 0.916
- self-aminoacylation [3]: 0.994
- self-aminoacylation [4]: 0.664
- self-aminoacylation [5]: 0.948
- self-aminoacylation [6]: 0.791

Sequence: CUACUUCAGAGAAUCGGUCUG [Fam1A.1 aminoacylation ribozyme variant]
- self-aminoacylation [1]: 0.951
- self-aminoacylation [2]: 0.853
- self-aminoacylation [3]: 0.895
- self-aminoacylation [4]: 0.7
- self-aminoacylation [5]: 0.846
- self-aminoacylation [6]: 0.806

Sequence: CUACUUCAUACAAACGGUCUG [Fam1A.1 aminoacylation ribozyme variant]
- self-aminoacylation [1]: 0.725
- self-aminoacylation [2]: 0.652
- self-aminoacylation [3]: 1.06
- self-aminoacylation [4]: 0.536
- self-aminoacylation [5]: 0.936
- self-aminoacylation [6]: 0.803

Sequence: CUACUUCAUACAAUCGCUCUG [Fam1A.1 aminoacylation ribozyme variant]
- self-aminoacylation [1]: 0.626
- self-aminoacylation [2]: 0.605
- self-aminoacylation [3]: 0.52
- self-aminoacylation [4]: 0.357
- self-aminoacylation [5]: 0.66
- self-aminoacylation [6]: 0.627

Sequence: CUACUUCAUACAAUCGUUCUG [Fam1A.1 aminoacylation ribozyme variant]
- self-aminoacylation [1]: 0.476
- self-aminoacylation [2]: 0.477
- self-aminoacylation [3]: 0.733
- self-aminoacylation [4]: 0.371
- self-aminoacylation [5]: 0.535
- self-aminoacylation [6]: 0.655

Sequence: CUACUUCAUACAUUCGGUCUG [Fam1A.1 aminoacylation ribozyme variant]
- self-aminoacylation [1]: 0.894
- self-aminoacylation [2]: 1.04
- self-aminoacylation [3]: 1.05
- self-aminoacylation [4]: 0.96
- self-aminoacylation [5]: 0.955
- self-aminoacylation [6]: 0.965

Sequence: CUACUUCCAACAAUCCGUCUG [Fam1A.1 aminoacylation ribozyme variant]
- self-aminoacylation [1]: 0.771
- self-aminoacylation [2]: 0.999
- self-aminoacylation [3]: 0.668
- self-aminoacylation [4]: 0.524
- self-aminoacylation [5]: 0.794
- self-aminoacylation [6]: 0.886

Sequence: CUACUUCCAACAAUCGAUCUG [Fam1A.1 aminoacylation ribozyme variant]
- self-aminoacylation [1]: 0.494
- self-aminoacylation [2]: 0.664
- self-aminoacylation [3]: 0.773
- self-aminoacylation [4]: 0.608
- self-aminoacylation [5]: 0.747
- self-aminoacylation [6]: 0.549

Sequence: CUACUUCCAACAAUCGGUCUG [Fam1A.1 aminoacylation ribozyme variant]
- self-aminoacylation [1]: 0.722
- self-aminoacylation [2]: 0.702
- self-aminoacylation [3]: 1.11
- self-aminoacylation [4]: 0.831
- self-aminoacylation [5]: 0.766
- self-aminoacylation [6]: 0.768

Sequence: CUACUUCCAACACUCGGUCUG [Fam1A.1 aminoacylation ribozyme variant]
- self-aminoacylation [1]: 1.03
- self-aminoacylation [2]: 1.01
- self-aminoacylation [3]: 0.522
- self-aminoacylation [4]: 0.796
- self-aminoacylation [5]: 0.978
- self-aminoacylation [6]: 0.958

Sequence: CUACUUCGAACAAUCCGUCUG [Fam1A.1 aminoacylation ribozyme variant]
- self-aminoacylation [1]: 0.738
- self-aminoacylation [2]: 0.587
- self-aminoacylation [3]: 0.35
- self-aminoacylation [4]: 0.588
- self-aminoacylation [5]: 0.636
- self-aminoacylation [6]: 0.745

Sequence: CUACUUCGAACAAUCGGACUG [Fam1A.1 aminoacylation ribozyme variant]
- self-aminoacylation [1]: 0.593
- self-aminoacylation [2]: 0.65
- self-aminoacylation [3]: 0.493
- self-aminoacylation [4]: 0.492
- self-aminoacylation [5]: 0.679
- self-aminoacylation [6]: 0.502

Sequence: CUACUUCGAACAAUCGGUCCG [Fam1A.1 aminoacylation ribozyme variant]
- self-aminoacylation [1]: 1.09
- self-aminoacylation [2]: 0.865
- self-aminoacylation [3]: 2.05
- self-aminoacylation [4]: 0.959
- self-aminoacylation [5]: 0.879
- self-aminoacylation [6]: 0.738

Sequence: CUACUUCGAACAAUCGGUCGG [Fam1A.1 aminoacylation ribozyme variant]
- self-aminoacylation [1]: 1.34
- self-aminoacylation [2]: 1.41
- self-aminoacylation [3]: 2.37
- self-aminoacylation [4]: 0.974
- self-aminoacylation [5]: 1.02
- self-aminoacylation [6]: 0.922

Sequence: CUACUUCGAACACUCGGUCUG [Fam1A.1 aminoacylation ribozyme variant]
- self-aminoacylation [1]: 1.04
- self-aminoacylation [2]: 1.32
- self-aminoacylation [3]: 3.18
- self-aminoacylation [4]: 1
- self-aminoacylation [5]: 1.02
- self-aminoacylation [6]: 1.18

Sequence: CUACUUCGAACAUUCGGUCUG [Fam1A.1 aminoacylation ribozyme variant]
- self-aminoacylation [1]: 1.05
- self-aminoacylation [2]: 1.18
- self-aminoacylation [3]: 0.576
- self-aminoacylation [4]: 0.84
- self-aminoacylation [5]: 1.29
- self-aminoacylation [6]: 1.32

Sequence: CUACUUCGAAGAAUCGGUCUG [Fam1A.1 aminoacylation ribozyme variant]
- self-aminoacylation [1]: 0.933
- self-aminoacylation [2]: 0.757
- self-aminoacylation [3]: 0.287
- self-aminoacylation [4]: 0.567
- self-aminoacylation [5]: 0.875
- self-aminoacylation [6]: 0.839

Sequence: CUACUUCGAGCAAUCGGUCUG [Fam1A.1 aminoacylation ribozyme variant]
- self-aminoacylation [1]: 1.15
- self-aminoacylation [2]: 0.815
- self-aminoacylation [3]: 0.728
- self-aminoacylation [4]: 0.703
- self-aminoacylation [5]: 0.951
- self-aminoacylation [6]: 1.01
